From patent US20110097270A1

What was measured:
[1] = target: hepatitis B surface antigen (HBsAg), purified from human plasma (hepatitis B virus); test: competition inhibition ELISA: free HBsAg against HBsAg-coated wells; I50 of antigen multiplied by 100
[2] = target: hepatitis B surface antigen (HBsAg), purified from human plasma (hepatitis B virus); test: indirect competition ELISA on HBsAg-coated wells; highest attainable concentration of unlabeled Fab; competitor: HBV#8 IgG
[3] = target: hepatitis B surface antigen (HBsAg), purified from human plasma (hepatitis B virus); test: indirect competition ELISA on HBsAg-coated wells; highest attainable concentration of unlabeled Fab; competitor: biotinylated HBV#8 Fab
[4] = target: hepatitis B surface antigen (HBsAg), purified from human plasma (hepatitis B virus); test: competition inhibition ELISA; Kd of the IgG against Kd of the Fab

Chain of hepatitis B surface antigen (HBsAg), purified from human plasma (hepatitis B virus) (P03141 175-400): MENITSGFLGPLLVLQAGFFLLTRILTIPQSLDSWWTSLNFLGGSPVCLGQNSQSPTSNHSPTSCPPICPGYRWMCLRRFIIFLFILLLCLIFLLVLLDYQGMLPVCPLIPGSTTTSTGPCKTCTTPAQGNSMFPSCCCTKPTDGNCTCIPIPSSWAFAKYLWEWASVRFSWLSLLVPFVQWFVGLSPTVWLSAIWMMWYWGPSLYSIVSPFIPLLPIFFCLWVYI

B1: HBV#8 Fab (Fab, V domains shown)
VH: EVQLLESGPGLVKPSQTLSLTCAVSGAFMTSDYLYWSWLRQPPGKGPEWIGGIYTTGRSHYNPSLRGRATLSVDTSKNQFSLELNSVTAADTAVYYCARGQYHNWGPSLFDYYNYYYMDVWGKGTTVTVSS
VL: AAELTQSPSSLSASVGDRVTITCRASQDISNYLAWYQQKPGKAPKLLIYSASRLQSGVPSRFSGSGSGTDYTLTLSSLHPEDSATYYCHQYHSAPWTFGQGTKVEIKR
B1 showed a Kd [1] of 1900 nM, a percent inhibition of binding [2] of 57% and a percent inhibition of binding [3] of 66%.

B2: HBV#8 IgG (antibody, V domains shown)
VH: B1 VH
VL: B1 VL
B2 was tested, and the Kd [1] was 25 nM and the fold improvement of affinity (IgG against Fab) [4] was 75 fold.
